For assay [1], the target named is T1, recombinant human LAG3(ECD)-his (Sino Biological, Cat #: 16498-H08H) (human, UniProt P18627 23-450).
T1 construct: extracellular domain; Bought protein; not shown: his tag
T1 sequence (looked up): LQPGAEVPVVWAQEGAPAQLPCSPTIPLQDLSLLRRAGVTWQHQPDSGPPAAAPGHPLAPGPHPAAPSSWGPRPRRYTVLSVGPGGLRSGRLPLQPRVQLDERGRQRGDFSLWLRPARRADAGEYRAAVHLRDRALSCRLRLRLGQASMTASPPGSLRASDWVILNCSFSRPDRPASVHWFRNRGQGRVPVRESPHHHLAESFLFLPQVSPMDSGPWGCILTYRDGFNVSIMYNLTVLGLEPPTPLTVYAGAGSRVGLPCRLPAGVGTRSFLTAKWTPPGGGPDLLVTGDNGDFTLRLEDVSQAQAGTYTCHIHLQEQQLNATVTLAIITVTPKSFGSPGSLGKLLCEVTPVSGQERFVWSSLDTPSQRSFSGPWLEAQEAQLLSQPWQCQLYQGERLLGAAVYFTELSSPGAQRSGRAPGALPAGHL
Put plainly: ELISA, coated human LAG3(ECD)-his. As to the method: The wells were blocked with 200 µl of blocking buffer (PBS containing 1% BSA, 1% goat serum, and 0.05% Tween 20) for 2 hours at room temperature, and then 100 µl of serially diluted anti-LAG3 antibodies (starting from 40 µg/ml) were added to each well and incubated for 1 hour at RT. Plates were washed for 3 times with PBST (PBS+0.05% Tween 20), added with Goat-anti-mouse IgG-HRP (Sigma, US, Cat #: A9309-1 ml) diluted 5000×, and incubated for 1 hour at RT. Plates were developed with freshly prepared Ultra-TMB (BD, US, Cat #:555214) for 5 minutes at RT. Absorbance was read on a SpectraMaxR i3X (Molecular Devies, US) at 450 nm.

The target in assay [2] is T2, mouse LAG3 expressed on HEK293A cells (mouse, UniProt Q61790 24-521).
T2 construct: whole, on cells; also called HEK293A/mouse LAG3
T2 sequence (looked up): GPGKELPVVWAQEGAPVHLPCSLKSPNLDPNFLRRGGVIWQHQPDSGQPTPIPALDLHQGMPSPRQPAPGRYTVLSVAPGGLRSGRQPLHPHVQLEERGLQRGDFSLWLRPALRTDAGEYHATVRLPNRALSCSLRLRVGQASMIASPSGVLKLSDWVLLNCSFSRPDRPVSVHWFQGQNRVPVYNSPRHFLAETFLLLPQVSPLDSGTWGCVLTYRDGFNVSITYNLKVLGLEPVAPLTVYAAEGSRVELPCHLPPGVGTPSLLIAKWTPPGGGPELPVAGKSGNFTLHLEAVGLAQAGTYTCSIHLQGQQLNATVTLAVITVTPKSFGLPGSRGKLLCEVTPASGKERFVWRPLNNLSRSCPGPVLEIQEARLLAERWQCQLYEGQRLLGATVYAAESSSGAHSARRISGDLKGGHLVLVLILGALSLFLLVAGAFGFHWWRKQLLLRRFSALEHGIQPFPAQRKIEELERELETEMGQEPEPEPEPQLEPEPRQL
Put plainly: FACS on HEK293A/mouse LAG3 cells. As to the method:
Briefly, 10^5 HEK293A cells in 50 μl PBS buffers were seeded into each well of the 96-well plates and then added with 50 μl of serially diluted anti-LAG3 antibodies (5-fold dilution, starting from 40 μg/ml). After incubated at 4° C. for 1 hour, plates were washed 3 times with PBST. Then, an APC coupled Goat Anti-Mouse IgG (BioLegend, US, Cat #: 405308) diluted 500× was added to the plates. After incubation at 4° C. for 1 hour, the plates were washed with PBS for 3 times and then cell fluorescence was monitored using a FACS machine (BD).

Assay [3] concerns the target T3, recombinant monkey LAG3(ECD)-hFc (ACRO, Cat #: LA3-05252) (monkey (rhesus), UniProt A0A5F8A874 23-450).
T3 construct: Bought protein; also called rhesus LAG3(ECD)-hFc; rh LAG3(ECD)-hFc; not shown: human Fc (hFc) and any linker
T3 sequence: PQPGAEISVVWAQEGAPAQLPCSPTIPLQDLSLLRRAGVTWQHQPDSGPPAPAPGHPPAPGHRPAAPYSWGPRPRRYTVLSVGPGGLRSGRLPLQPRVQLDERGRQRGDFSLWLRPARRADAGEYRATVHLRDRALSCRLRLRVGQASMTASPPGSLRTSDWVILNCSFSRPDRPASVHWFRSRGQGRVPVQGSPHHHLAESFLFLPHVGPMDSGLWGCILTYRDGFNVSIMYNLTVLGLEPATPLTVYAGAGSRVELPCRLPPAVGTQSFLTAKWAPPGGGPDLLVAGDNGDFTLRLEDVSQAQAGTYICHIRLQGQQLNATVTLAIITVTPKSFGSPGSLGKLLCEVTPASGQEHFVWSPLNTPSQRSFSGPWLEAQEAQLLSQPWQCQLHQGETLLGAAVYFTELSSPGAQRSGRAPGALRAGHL
Put plainly: ELISA, coated monkey LAG3(ECD)-hFc. The protocol: Species-cross-reactivity of the 12 LAG3 mAbs to monkey or mouse LAG3 was further tested by direct ELISA. Briefly, 50 µl of 500 ng/ml monkey LAG3(ECD)-hFc (ACRO, CN, Cat #: LA3-05252) or mouse LAG3-his (Sino Biological, CN, Cat #:53069-M08H) was coated on 96-well ELISA plates followed by incubation with 100 µl of serially diluted anti-LAG3 antibodies (starting from 40 µg/ml). Goat anti-mouse IgG conjugated with HRP (Sigma, US, Cat #: A9309-1 ml) was added then.

Results on two molecules are retold here after patent US10946092 (BEIJING MABWORKS BIOTECH, dated 2021).

B1: mouse anti-LAG3 monoclonal antibody 101F4 (antibody, V domains shown)
VH: EVQLEQSGAELVRPGASVTLSCKASGYTFTDYEMHWVKQTPVYGLEWMGAIDPETGGIVYNQRFKGKAILTADKSSSTAYMELRSLTSEDSAVYYCTGAGWGYWGQGTTLTVSS
VL: DIVITQSPSSMYASLGERVTITCKASQDINSYLSWFQQKPGKSPKTLIYRANRLLDGVPSRFSGSGSGQDYSLTISSLEFEDMGLYYCLQYDEFPFTFGSGTKLEIK
For B1, the EC50 stood at 4 nM in assay [1] and 2.3 nM in assay [3]. In assay [2], the binding result is “no binding (tested: starting from 40 µg/ml)”.

B2: mouse anti-LAG3 monoclonal antibody 134G10 (antibody, V domains shown)
VH: EVQLVESGGDLVKPGGSLKLSCAASGFTFSSFGMSWVRQTPDKRLEWVGIISSGGTYTFYPDILKGRFTISRDNAKNTLYLQMSSLKSEDTAMYYCARVYSDYDGRFDYWGQGTTLTVSS
VL: DIVMTQSPSSLSVSAGEKVTMNCKSSQSLLNSGNQKNYLAWYQQKPGQPPKLLIYGASTRESGVPDRFTGSGSGTDFTLTISSVQAEDLAVYYCQNDHSYPLTFGAGTKLELK
With B2, the concentration giving a half-maximal response (EC50) in assay [1] turned out to be 1.92 nM; in assay [3], 0.23 nM. In assay [2], the binding result is on record as “no binding (tested: starting from 40 µg/ml)”.
